The values below are quoted from earlier work in PMC8910669.

The data set deals with SARS-CoV-2 spike RBD RBD (Severe acute respiratory syndrome coronavirus 2) (UniProt P0DTC2).

One may read the Kd as the equilibrium constant for the complex coming apart. Regarding hBD-2 (from UniProt O15263), the Kd is 300 nM.
